The source of these data is publication PMC2629585.

Experiment [1] addresses C-reactive protein (CRP), human, purified (Sigma) (human) (UniProt P02741). In words: SPR; BIAcore 2000; POPC on HPA chip, 200 nM CRP injected and captured, then L-rFBG injected at 30 ul/min; normal condition: 50 mM Tris, 145 mM NaCl, 2.5 mM calcium, pH 7.4. A general note: In SPR one partner is held on a chip, and binding of the other changes the refractive index at the surface.

For experiment [2] the target is unchanged. In words: SPR; BIAcore 2000; POPC on HPA chip, 200 nM CRP injected and captured, then L-rFBG injected at 30 ul/min; infection-inflammation condition: 50 mM MES, 145 mM NaCl, 2 mM calcium, pH 6.5.

pKd: −log10 of the molar value.

Sequence of C-reactive protein (CRP), human, purified (Sigma) (human) (P02741 19-224): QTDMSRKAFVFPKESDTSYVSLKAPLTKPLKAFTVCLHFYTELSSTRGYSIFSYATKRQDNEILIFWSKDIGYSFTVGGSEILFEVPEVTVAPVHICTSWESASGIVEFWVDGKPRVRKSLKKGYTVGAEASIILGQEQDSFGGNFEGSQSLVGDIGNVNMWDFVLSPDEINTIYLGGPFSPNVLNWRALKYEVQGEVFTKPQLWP

What is called pKd is the negative decadic logarithm of the Kd, by convention in mol/L. Consider “recombinant FBG domain of L-ficolin (L-rFBG) (domain or fragment)”, for which the figures for the negative logarithm of the Kd (pKd) in experiment [1] and in experiment [2] were 5.95 and 7.90, respectively.
